Results taken from patent US20140371150A1 (UNIVERSITE DE NANTES, published 2014).
Blank lines part the entries; values can stand above or below the binder they belong to.

Experiments:
[1] = biological target: T1, RANK-Fc carrier-free (R&D Systems) (human, UniProt Q9Y6Q6 30-212); assay: SPR (BIAcore 3000), RANK-Fc immobilized, single cycle kinetics, 1:1 Langmuir model
T1 construct: Bought from R&D Systems; Immobilized on the sensor chip for SPR and used in solution for NMR; also called hRANK; RANK-Fc CF; not shown: Fc part of the bought fusion protein
T1 sequence (looked up): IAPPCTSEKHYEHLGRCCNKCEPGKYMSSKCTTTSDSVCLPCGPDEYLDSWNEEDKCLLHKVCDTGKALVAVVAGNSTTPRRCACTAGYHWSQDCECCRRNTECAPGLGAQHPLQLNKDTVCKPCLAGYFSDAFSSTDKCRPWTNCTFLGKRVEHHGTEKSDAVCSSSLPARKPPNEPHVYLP
Description: Biosensor experiments were carried out on a BIAcore 3000 instrument (BIAcore) as published previously (Baud'Huin et al. 2009). Recombinant purified RANKL (2 μg/mL in 5 mM maleate, pH 5.75) or RANK-Fc carrier-free (5 μg/mL in sodium acetate buffer, pH 5.0) were covalently immobilized to the dextran matrix of a CMS sensor chip (BIAcore) at a flow rate of 5 μL/min. Immobilization levels ranging from 400 to 3000 Response Units (RU) for RANKL or 5000 RU for RANK were obtained. Binding assays were performed at 25° C. in 10 mM Hepes buffer, pH 7.4. The association phase was 180 seconds followed by a dissociation phase in the same buffer. Polypeptides binding studies to RANK or RANKL were determined using single cycle kinetics, starting with 100 μM of the polypeptide of interest followed by 2-fold serial dilutions (ranging from 100 to 0.78 μM). The sensorgrams were fitted to calculate the equilibrium-dissociation constants using the Langmuir 1:1 model with BiaEval 4.1 software (BIAcore). RANK-Fc CF, RANKL and OPG carrier-free were obtained from R&D Systems (Minneapolis, Minn., USA).
Binding of the polypeptides to RANK was studied using surface plasmon resonance (FIG. 1C). Several polypeptides bound to immobilized RANK in a dose-dependent manner, presented here is Pep1 (SEQ ID NO: 33).

[2] = biological target: T2, human RANK on cells (human CD14+ monocytes; HEK-RANK cells) (human, UniProt Q9Y6Q6 30-616); assay: cell-based or functional assay
T2 sequence (looked up): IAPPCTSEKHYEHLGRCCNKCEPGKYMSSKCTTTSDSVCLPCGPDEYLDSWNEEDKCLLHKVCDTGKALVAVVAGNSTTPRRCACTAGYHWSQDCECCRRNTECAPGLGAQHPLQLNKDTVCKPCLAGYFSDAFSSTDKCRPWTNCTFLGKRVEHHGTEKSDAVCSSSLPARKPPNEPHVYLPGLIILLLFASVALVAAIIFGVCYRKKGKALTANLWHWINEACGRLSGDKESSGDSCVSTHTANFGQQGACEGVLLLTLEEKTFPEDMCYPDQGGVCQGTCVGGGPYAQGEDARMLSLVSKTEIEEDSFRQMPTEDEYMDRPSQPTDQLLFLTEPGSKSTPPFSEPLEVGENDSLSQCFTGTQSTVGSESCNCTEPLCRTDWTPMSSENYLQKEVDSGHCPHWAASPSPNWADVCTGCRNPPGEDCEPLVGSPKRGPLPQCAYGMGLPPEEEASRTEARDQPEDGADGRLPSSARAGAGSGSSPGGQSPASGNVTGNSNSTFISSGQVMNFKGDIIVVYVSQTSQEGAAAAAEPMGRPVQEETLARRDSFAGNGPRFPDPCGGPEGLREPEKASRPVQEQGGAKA

[3] = biological target: T3, mouse RANK on cells (murine CD11b+ monocytes; RAW264.7 cells) (mouse, UniProt O35305 31-625); assay: cell-based or functional assay
T3 sequence (looked up): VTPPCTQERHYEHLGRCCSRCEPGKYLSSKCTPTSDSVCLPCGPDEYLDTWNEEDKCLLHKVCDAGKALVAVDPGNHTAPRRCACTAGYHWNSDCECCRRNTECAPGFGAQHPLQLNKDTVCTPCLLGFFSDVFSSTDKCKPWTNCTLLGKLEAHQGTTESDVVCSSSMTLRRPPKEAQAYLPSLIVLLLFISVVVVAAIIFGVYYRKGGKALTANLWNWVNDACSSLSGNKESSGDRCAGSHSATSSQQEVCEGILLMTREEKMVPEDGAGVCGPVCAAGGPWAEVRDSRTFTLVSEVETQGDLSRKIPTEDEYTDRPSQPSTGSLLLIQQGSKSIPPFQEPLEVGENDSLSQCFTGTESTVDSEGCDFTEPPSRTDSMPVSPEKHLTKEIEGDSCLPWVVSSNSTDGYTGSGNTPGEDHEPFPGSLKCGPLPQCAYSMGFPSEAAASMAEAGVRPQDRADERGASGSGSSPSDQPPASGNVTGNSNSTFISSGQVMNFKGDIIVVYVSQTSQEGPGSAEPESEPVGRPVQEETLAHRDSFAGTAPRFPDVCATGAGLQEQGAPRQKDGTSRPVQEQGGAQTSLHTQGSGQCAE

Kd [1]: 20.6 µM
koff [1]: 0.000278 s⁻¹
B1: Pep1 (peptide)
peptide: ELASYIIITQLG
notes: Synthetic designed peptide; the SPR text mentions no pegylation; also called polypeptide Pep1

IC50 of RANKL-induced osteoclast formation (TRAP-positive multinucleated cells), human CD14+ cells [2]: 40 µM
IC50 of RANKL-induced osteoclast formation (TRAP-positive multinucleated cells), murine CD11b+ cells [3]: 30 µM
Kd [1]: 10.5 µM
koff [1]: 0.0052 s⁻¹
kon [1]: 495 M⁻¹ s⁻¹
B2: Pep8 (peptide)
peptide: NVLKLCSGE
notes: Pegylated forms (N-(PEG)5, N-(PEG)8) were tested only in gene expression assays and in vivo; also called polypeptide Pep8
